What was measured:
[1] = target: Deleted in Colorectal Cancer (DCC), wild type, overexpressed in Cos7 cells (UniProt P70211); assay: immunostaining of cells or tissue
[2] = target: DCC I372R mutant, overexpressed in Cos7 cells (UniProt P70211); assay: immunostaining of cells or tissue

Draxin mean fluorescence on DCC+ cells [1]: 0.95
Draxin mean fluorescence on DCC+ cells [2]: 0.72
Substance: recombinant Draxin (ligand)
